Among the data in patent CN108840930A (SHENGYAN MEDICINE TECH WUHAN CO LTD, dated 2018) are Kd values, retold here.

This experiment deals with 抗体-Fc融合蛋白scFv-3B5-Fc (anti-human CD19 scFv 3B5 fused to human IgG1 Fc) (human, UniProt P01857 99-330 = IgG part). Kind of experiment: concentration-gradient ELISA, Fc-CD19 coated at 100 ng/well, goat anti-human-HRP detection, nonlinear fit (b = KD). For orientation: ELISA stands for enzyme-linked immunosorbent assay.

In general, Kd refers to the equilibrium constant for the complex coming apart. Read a high Kd as lower affinity.

B1: 人Fc-CD19重组蛋白 (recombinant human Fc-CD19, bought from Acrobiosystems) (Fc fusion, UniProt P15391 20-291, looked up)
chain: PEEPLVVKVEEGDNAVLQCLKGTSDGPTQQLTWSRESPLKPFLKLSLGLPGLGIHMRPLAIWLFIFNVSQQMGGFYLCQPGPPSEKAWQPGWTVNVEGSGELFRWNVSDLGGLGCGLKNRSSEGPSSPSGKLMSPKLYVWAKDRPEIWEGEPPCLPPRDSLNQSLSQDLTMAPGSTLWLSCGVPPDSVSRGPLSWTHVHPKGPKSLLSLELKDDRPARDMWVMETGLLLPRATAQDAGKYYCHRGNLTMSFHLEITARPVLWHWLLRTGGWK
notes: Bought reagent; the order here follows the printed name Fc-CD19; also called Fc-CD19重组抗原; 重组人CD19抗原; not shown: Fc part of the bought Fc-CD19 fusion
The molecule B1 came in with a Kd of 0.475 nM.
